What was measured:
Experiment in all cases: FRET
Ac-NSTSQ-H = biological target: Ac-NSTSQ-H
Ac-NSFSQ-H = biological target: Ac-NSFSQ-H
Ac-ESTLQ-H = biological target: Ac-ESTLQ-H

B1: SARS-CoV main protease (Mpro), P0C6X7 (protein)
chain: SGFRKMAFPSGKVEGCMVQVTCGTTTLNGLWLDDTVYCPRHVICTAEDMLNPNYEDLLIRKSNHSFLVQAGNVQLRVIGHSMQNCLLRLKVDTSNPKTPKYKFVRIQPGQTFSVLACYNGSPSGVYQCAMRPNHTIKGSFLNGSCGSVGFNIDYDCVSFCYMHHMELPTGVHAGTDLEGKFYGPFVDRQTAQAAGTDTTITLNVLAWLYAAVINGDRWFLNRFTTTLNDFNLVAMKYNYEPLTQDHVDILGPLSAQTGIAVLDMCAALKELLQNGMNGRTILGSTILEDEFTPFDVVRQCSGVTFQ
- Ki (Ac-NSTSQ-H): 41 µM
- Ki (Ac-NSFSQ-H): 72.7 µM
- Ki (Ac-ESTLQ-H): 8.27 µM
